Results published in the supplement of paper PMC9112550, “Optimization of the antimicrobial peptide Bac7 by deep mutational scanning” (BMC Biology, 2022).

tested on: Escherichia coli TOP10; test: shrunken log2 fold change of peptide-encoding DNA abundance (4.5 h post-induction vs induction); higher = less antimicrobial activity (less host growth inhibition); details: time post-induction: 4.5 h; library: site-saturation at positions 5, 18, 19, 20
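Note: peptides expressed intracellularly from a pBAD plasmid library in pooled LB shake-flask culture, induced with 0.3% L-arabinose, DNA abundance read by NGS, three biological replicates, DESeq2 with apeglm shrinkage.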

Sequence | shrunken log2 fold change
RRIRSRPPRLPRPRPRPDLAPRP | 0.444
RRIRSRPPRLPRPRPRPDLDPRP | 0.152
RRIRSRPPRLPRPRPRPDNWPRP | -0.39
RRIRSRPPRLPRPRPRPDPSPRP | 0.0173
RRIRSRPPRLPRPRPRPDRHPRP | -0.0205
RRIRSRPPRLPRPRPRPDVIPRP | 0.0141
RRIRSRPPRLPRPRPRPDWFPRP | 0.0986
RRIRSRPPRLPRPRPRPDWVPRP | 0.305
RRIRSRPPRLPRPRPRPDYHPRP | -0.271
RRIRSRPPRLPRPRPRPEACPRP | 1.03
RRIRSRPPRLPRPRPRPEALPRP | -0.0643
RRIRSRPPRLPRPRPRPEETPRP | -0.00674
RRIRSRPPRLPRPRPRPEEVPRP | 0.0829
RRIRSRPPRLPRPRPRPEFAPRP | 0.413
RRIRSRPPRLPRPRPRPEFGPRP | 0.358
RRIRSRPPRLPRPRPRPEFNPRP | 0.24
RRIRSRPPRLPRPRPRPEGEPRP | 0.809
RRIRSRPPRLPRPRPRPEHGPRP | -0.0838
RRIRSRPPRLPRPRPRPEHVPRP | -0.191
RRIRSRPPRLPRPRPRPEIEPRP | 0.0942
RRIRSRPPRLPRPRPRPEIPPRP | 2.86
RRIRSRPPRLPRPRPRPEMIPRP | 0.0158

Sequence | shrunken log2 fold change
RRIRSRPPRLPRPRPRPEMNPRP | 0.0588
RRIRSRPPRLPRPRPRPEMYPRP | -0.0223
RRIRSRPPRLPRPRPRPENEPRP | -0.0857
RRIRSRPPRLPRPRPRPEPAPRP | 0.912
RRIRSRPPRLPRPRPRPEQAPRP | 0.289
RRIRSRPPRLPRPRPRPEQGPRP | 0.0683
RRIRSRPPRLPRPRPRPEQWPRP | 0.172
RRIRSRPPRLPRPRPRPERHPRP | 0.0386
RRIRSRPPRLPRPRPRPETEPRP | 0.997
RRIRSRPPRLPRPRPRPETTPRP | 0.461
RRIRSRPPRLPRPRPRPEVAPRP | 0.102
RRIRSRPPRLPRPRPRPEVFPRP | 0.0779
RRIRSRPPRLPRPRPRPEVPPRP | 0.0326
RRIRSRPPRLPRPRPRPEVQPRP | -0.0242
RRIRSRPPRLPRPRPRPEWVPRP | 0.146
RRIRSRPPRLPRPRPRPEYPPRP | -0.128
RRIRSRPPRLPRPRPRPFASPRP | 0.0202
RRIRSRPPRLPRPRPRPFAWPRP | -0.0248
RRIRSRPPRLPRPRPRPFCDPRP | -0.353
RRIRSRPPRLPRPRPRPFDMPRP | 0.394
RRIRSRPPRLPRPRPRPFETPRP | -0.101
RRIRSRPPRLPRPRPRPFGNPRP | -0.00151

Sequence | shrunken log2 fold change
RRIRSRPPRLPRPRPRPFGVPRP | -0.448
RRIRSRPPRLPRPRPRPFIQPRP | -0.0991
RRIRSRPPRLPRPRPRPFKAPRP | -0.0415
RRIRSRPPRLPRPRPRPFPSPRP | -0.168
RRIRSRPPRLPRPRPRPFRDPRP | -0.123
RRIRSRPPRLPRPRPRPFRKPRP | -0.176
RRIRSRPPRLPRPRPRPFSAPRP | -0.259
RRIRSRPPRLPRPRPRPFSHPRP | -0.388
RRIRSRPPRLPRPRPRPFSMPRP | -0.0498
RRIRSRPPRLPRPRPRPFTFPRP | -0.189
RRIRSRPPRLPRPRPRPFVTPRP | -0.0434
RRIRSRPPRLPRPRPRPFWNPRP | -0.139
RRIRSRPPRLPRPRPRPFWPPRP | 0.315
RRIRSRPPRLPRPRPRPFWTPRP | 0.131
RRIRSRPPRLPRPRPRPFYIPRP | -0.608
RRIRSRPPRLPRPRPRPFYWPRP | -0.0331
RRIRSRPPRLPRPRPRPGDLPRP | -0.091
RRIRSRPPRLPRPRPRPGEDPRP | 0.106
RRIRSRPPRLPRPRPRPGEKPRP | -0.000687
RRIRSRPPRLPRPRPRPGFLPRP | 0.078
RRIRSRPPRLPRPRPRPGFYPRP | -0.312
RRIRSRPPRLPRPRPRPGGKPRP | 0.0269

Sequence | shrunken log2 fold change
RRIRSRPPRLPRPRPRPGHVPRP | 0.1
RRIRSRPPRLPRPRPRPGIAPRP | 0.409
RRIRSRPPRLPRPRPRPGKDPRP | 0.099
RRIRSRPPRLPRPRPRPGKQPRP | 0.00846
RRIRSRPPRLPRPRPRPGLDPRP | 0.127
RRIRSRPPRLPRPRPRPGLTPRP | 0.264
RRIRSRPPRLPRPRPRPGNLPRP | -0.0533
RRIRSRPPRLPRPRPRPGNYPRP | -0.0556
RRIRSRPPRLPRPRPRPGPTPRP | 0.788
RRIRSRPPRLPRPRPRPGQVPRP | -0.0247
RRIRSRPPRLPRPRPRPGRDPRP | 0.255
RRIRSRPPRLPRPRPRPGRNPRP | -0.225
RRIRSRPPRLPRPRPRPGRPPRP | 0.245
RRIRSRPPRLPRPRPRPGSRPRP | 0.297
RRIRSRPPRLPRPRPRPGTKPRP | 0.108
RRIRSRPPRLPRPRPRPGVLPRP | 0.0866
RRIRSRPPRLPRPRPRPGWCPRP | 0.0616
RRIRSRPPRLPRPRPRPGWIPRP | 0.0994
RRIRSRPPRLPRPRPRPGYAPRP | 0.111
RRIRSRPPRLPRPRPRPGYYPRP | -0.457
RRIRSRPPRLPRPRPRPHCMPRP | -0.344
RRIRSRPPRLPRPRPRPHDPPRP | -0.0194

Sequence | shrunken log2 fold change
RRIRSRPPRLPRPRPRPHDRPRP | -0.138
RRIRSRPPRLPRPRPRPHDSPRP | 0.0375
RRIRSRPPRLPRPRPRPHDYPRP | 0.0635
RRIRSRPPRLPRPRPRPHIRPRP | -0.632
RRIRSRPPRLPRPRPRPHKLPRP | -0.228
RRIRSRPPRLPRPRPRPHMFPRP | -0.428
RRIRSRPPRLPRPRPRPHNCPRP | -0.159
RRIRSRPPRLPRPRPRPHPHPRP | -0.168
RRIRSRPPRLPRPRPRPHQEPRP | -0.0261
RRIRSRPPRLPRPRPRPHRAPRP | 0.0729
RRIRSRPPRLPRPRPRPHVEPRP | 0.121
RRIRSRPPRLPRPRPRPHWKPRP | 0.0398
RRIRSRPPRLPRPRPRPHWQPRP | -0.0893
RRIRSRPPRLPRPRPRPHWWPRP | 0.359
RRIRSRPPRLPRPRPRPHYNPRP | -1.04
RRIRSRPPRLPRPRPRPIDFPRP | -0.0652
RRIRSRPPRLPRPRPRPIDGPRP | 0.0145
RRIRSRPPRLPRPRPRPIFHPRP | -0.29
RRIRSRPPRLPRPRPRPIFPPRP | 1.04
RRIRSRPPRLPRPRPRPIFSPRP | -0.617
RRIRSRPPRLPRPRPRPIGGPRP | -0.0412
